# ± gives the uncertainty stated by the source.
# Test: self-splicing fitness, log relative to wild type (ln ratio); higher = more splicing; Tetrahymena group I intron in knt gene, E. coli kanamycin selection, DiMSum; sequences stand for … in CUCUCU…GGAGGGAAAAGUUAUCAGGCAUGCACCUGGUAGCUAGUCUUUAAACCAAUAGAUUGCAUCGGUUUAAAAGGCAAGACCGUCAAAUUGCGGGAAAGGGGUCAACAGCCGUUCAGUACCAAGUCUCAGGGGAAACUUUGAGAUGGCCUUGCAAAGGGUAUGGUAAUAAGCUGACGGACAUGGUCCUAACCACGCAGCCAAGUCCUAAGUCAACAGAUCUUCUGUUGAUAUGGAUGCAGUUCACAGACUAAAUGUCGGUCGGGGAAGAUGUAUUCUUCUCAUAAGAUAUAGUCGGACCUCUCCUUAAUGGGAGCUAGCGGAUGAAGUGAUGCAACACUGGAGCCGCUGGGAACUAAUUUGUAUGCGAAAGUAUAUUGAUUAGUUUUGGAGUACUCGUGGUCG
# In short: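 A randomised library covering all eight P1ex-region intron nucleotides was built with the intron in the knt kanamycin-resistance gene on pET-22b(+) and held in E. coli BL21(DE3). Cells were grown overnight at 37°C or 30°C on LB agar, with or without 25 μg/mL kanamycin, plus 100 μg/mL carbenicillin, 50 μM IPTG and 0.2% rhamnose, and pooled colonies were amplicon-sequenced on an Illumina HiSeq 2500. DiMSum fitness is the error-weighted combination of wild-type-normalised replicate fold changes, kanamycin versus none.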
Sequence,self-splicing fitness (ln) (30 °C),self-splicing fitness (ln) (37 °C)
AGGAAGCAAUAUUACGGCAG,-2.3 ± 0.31,-0.552 ± 0.32
AUAAAGCAAUAUUACGAUCG,-0.0352 ± 0.072,0.19 ± 0.097
CGAGAGCAAUAUUACGGGCA,-3.47 ± 0.28,-2.53 ± 0.44
UCAUAGCAAUAUUACGACUC,-2.18 ± 0.37,-1.46 ± 0.37
ACCUAGCAAUAUUACGAUCG,-1.19 ± 0.083,-0.6 ± 0.1
CGUCAGCAAUAUUACGCCCU,-1.89 ± 0.15,-0.223 ± 0.23
AGGCAGCAAUAUUACGCCGU,-1.92 ± 0.19,-0.237 ± 0.17
GACGAGCAAUAUUACGGCAU,-1.4 ± 0.14,-0.955 ± 0.17
AAAAAGCAAUAUUACGCCCC,-0.356 ± 0.25,0.308 ± 0.34
AGAGAGCAAUAUUACGUUAG,-2.77 ± 0.19,-2.45 ± 0.29
CAGUAGCAAUAUUACGCAGA,-2.68 ± 0.37,-2.43 ± 0.3
CACGAGCAAUAUUACGAUUC,-3.44 ± 0.15,-2.49 ± 0.17
GAUAAGCAAUAUUACGCGUG,-0.603 ± 0.072,-0.471 ± 0.088
UCGGAGCAAUAUUACGGGAA,–,-2.08 ± 0.4
GAAGAGCAAUAUUACGUUGC,-3.04 ± 0.28,-2.25 ± 0.27
UAAAAGCAAUAUUACGGGCG,-0.0526 ± 0.069,0.305 ± 0.076
GCGGAGCAAUAUUACGCUUG,-3.14 ± 0.24,-1.06 ± 0.2
CACCAGCAAUAUUACGUUCG,-0.281 ± 0.049,-0.196 ± 0.062
CUGCAGCAAUAUUACGUUGG,-2.82 ± 0.14,-3.09 ± 0.27
CUAGAGCAAUAUUACGACGU,-3.28 ± 0.3,-0.837 ± 0.26
AUAAAGCAAUAUUACGAAAA,-1.4 ± 0.091,-0.609 ± 0.11
UGUGAGCAAUAUUACGGUGC,-3.57 ± 0.25,-1.77 ± 0.21
GGCUAGCAAUAUUACGGCUC,-3.26 ± 0.3,–
GCAGAGCAAUAUUACGCACG,-4.51 ± 0.42,-2.05 ± 0.23
GAAGAGCAAUAUUACGCCAG,–,-0.627 ± 0.38

Sequence,self-splicing fitness (ln) (30 °C),self-splicing fitness (ln) (37 °C)
UACGAGCAAUAUUACGGGGC,–,-3.34 ± 0.3
AGGAAGCAAUAUUACGUAAU,-0.858 ± 0.14,-1.42 ± 0.18
UGCGAGCAAUAUUACGACAA,-1.55 ± 0.3,-0.809 ± 0.2
GCGGAGCAAUAUUACGGCUA,–,-1.81 ± 0.39
GGAGAGCAAUAUUACGUAAC,-1.69 ± 0.11,-0.596 ± 0.15
AUAGAGCAAUAUUACGUAGC,-3.16 ± 0.29,-2.27 ± 0.3
CACGAGCAAUAUUACGAGGC,-3.19 ± 0.26,-1.81 ± 0.24
AGUCAGCAAUAUUACGAAGG,-1.27 ± 0.08,-1.46 ± 0.12
AUUAAGCAAUAUUACGAUCA,-1.58 ± 0.17,-0.409 ± 0.14
GGAGAGCAAUAUUACGAAUU,-3.13 ± 0.49,-2.27 ± 0.4
UGAAAGCAAUAUUACGCAGG,-2.65 ± 0.17,-1.42 ± 0.2
UGCAAGCAAUAUUACGUCGA,-1.09 ± 0.082,-0.989 ± 0.089
CACAAGCAAUAUUACGGAGC,-3.77 ± 0.29,-3.25 ± 0.24
GCGGAGCAAUAUUACGUUCG,–,-0.666 ± 0.37
GCUGAGCAAUAUUACGGUAU,-2.63 ± 0.2,-2.41 ± 0.2
CUCCAGCAAUAUUACGCGUG,-2.19 ± 0.075,-1.29 ± 0.085
UAACAGCAAUAUUACGAUUG,-1.57 ± 0.056,-0.741 ± 0.082
GCUAAGCAAUAUUACGGGGA,-1.74 ± 0.17,-1.55 ± 0.21
GAUGAGCAAUAUUACGUGCU,-2.91 ± 0.44,–
CGGCAGCAAUAUUACGCGUC,-4.09 ± 0.25,-2.4 ± 0.18
GGAUAGCAAUAUUACGGGGU,–,-3.01 ± 0.35
GACGAGCAAUAUUACGGUUG,-2.82 ± 0.13,-1.76 ± 0.13
GAUGAGCAAUAUUACGGUAA,-2.21 ± 0.29,-2.95 ± 0.38
GUGUAGCAAUAUUACGCCGC,-3 ± 0.46,-2.79 ± 0.44
AGAAAGCAAUAUUACGUCCA,-1.06 ± 0.1,-0.056 ± 0.13
